# Experimental data reported in patent publication US20130195908A1.
# Legend:
# [1] = target: Lyb-2.1 antigen expressed at the surface of B lymphocytes (mouse) (UniProt P21855); test: cell-based or functional assay
# [2] = target: MHC class II molecule I-E^d expressed at the surface of A20 cells and mouse splenocytes (mouse) (UniProt P01904); test: flow cytometry on mouse splenocytes, 10 nM complex, B cells gated with anti-CD19-PE
# [3] = target: MHC class II molecule I-E^d expressed at the surface of A20 cells and mouse splenocytes (mouse) (UniProt P01904); test: cell-based or functional assay
# Chain of UniProt P01904 (P01904 26-255, chain 1 of 2): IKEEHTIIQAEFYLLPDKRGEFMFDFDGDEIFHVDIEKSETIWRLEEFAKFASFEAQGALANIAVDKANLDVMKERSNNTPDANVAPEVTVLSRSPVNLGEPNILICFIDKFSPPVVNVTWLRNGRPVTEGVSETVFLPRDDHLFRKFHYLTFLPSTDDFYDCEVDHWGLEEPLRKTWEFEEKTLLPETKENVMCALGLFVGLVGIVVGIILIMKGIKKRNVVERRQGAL
# Chain of UniProt P01904 (P01915 32-264, chain 2 of 2, further chain): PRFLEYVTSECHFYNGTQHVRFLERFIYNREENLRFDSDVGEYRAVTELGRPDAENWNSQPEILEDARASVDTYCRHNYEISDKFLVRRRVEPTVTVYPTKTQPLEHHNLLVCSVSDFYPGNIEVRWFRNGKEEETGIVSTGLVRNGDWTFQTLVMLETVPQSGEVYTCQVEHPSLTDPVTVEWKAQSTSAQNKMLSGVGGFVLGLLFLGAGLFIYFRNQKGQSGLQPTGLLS
# Chain of UniProt P21855 (P21855 whole entry): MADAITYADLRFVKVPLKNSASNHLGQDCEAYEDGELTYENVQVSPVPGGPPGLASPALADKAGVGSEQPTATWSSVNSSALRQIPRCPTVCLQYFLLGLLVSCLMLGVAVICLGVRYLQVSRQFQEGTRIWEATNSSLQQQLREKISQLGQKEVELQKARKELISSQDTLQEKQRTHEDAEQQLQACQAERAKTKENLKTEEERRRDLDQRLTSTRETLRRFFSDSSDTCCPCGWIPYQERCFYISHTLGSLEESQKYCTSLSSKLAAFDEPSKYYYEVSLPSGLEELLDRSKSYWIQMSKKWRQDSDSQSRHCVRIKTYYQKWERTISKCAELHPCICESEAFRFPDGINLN
substance,measurement,setting,value
"10-1.D.2/ZZDTR-BD complex (mouse monoclonal IgG2a 10-1.D.2, anti-Lyb-2.1, complexed with ZZDTR-BD)","amount of ZZDTR-BD needed to reach the same level of T4B6 stimulation (IL-2 secretion), A20 cells as APCs, against free ZZDTR-BD",[1],3.8 times lower
"14-4-4S/ZZDTR-BD complex (mouse monoclonal IgG2a 14-4-4S, anti-MHC class II I-E^d, complexed with ZZDTR-BD)",percent of B lymphocytes labeled,[2],68.5%
same,"amount of ZZDTR-BD needed to reach the same level of T4B6 stimulation (IL-2 secretion), A20 cells as APCs, against free ZZDTR-BD",[3],13.4 times lower
same,"amount of ZZDTR-BD needed to reach the same level of T4B6 stimulation (IL-2 secretion), splenocytes as APCs, against free ZZDTR-BD",[3],5.2 times lower
